Data: patent publication US20140255414A1 (PROBIODRUG, published 2014)
Square brackets hold non-standard residues; d marks the D form. pGlu = O=C1CC[C@@H](C(=O)O)N1; PEG = not defined here

Assays:
Aβ(pE11-20)-biotin = biological target: T1, Aβ(pE11-20)-biotin; experiment: ELISA: 200 ng/ml Aβ(pE11-20)-biotin on streptavidin plate, antibody 55-3500 pg/ml, detection with rabbit anti-mouse Ig's HRP, absorption 450/540 nm
T1 construct: Immobilized on streptavidin-coated microplates in the auto-Ig-ELISA
T1 peptide: [pGlu]VHHQKLVFF-biotin
Method: Immobilization of 200 ng/ml Aβ(pE11-20)-biotin at streptavidin coated microplate (2 h, at RT). Blocking with 200 μl ELISA-Blocker (−T) 1 h at RT and followed by wash cycle (3×300 μl/well wash buffer). Standard anti Aβ11(pE) antibody (clone 13) was diluted in ELISA-Blocker (+T) in radix division from 3500 pg/ml down to 55 pg/ml and incubated 2 h at 4° C. A wash cycle followed and detection with polyclonal rabbit anti-mouse Ig's HRP 1 h at 4° C. After wash cycle TMB/H₂O₂ were added, incubated 30 min at RT (dark) and enzyme reaction was stopped with 1 M H₂SO₄. Absorption was measured at 450/540 nm at TECAN Sunrise.

Aβ(pE11-18)-PEG peptide [1] = biological target: T2, Aβ(pE11-18)-PEG peptide (reading uncertain); experiment: ITC at 20 °C, peptide titrated into antibody eluted with KSCN gradient (KD=1/KA)
T2 construct: The PEG attachment is not described further
T2 peptide: [pGlu]VHHQKLV-{PEG}
Method: For the ITC experiment, the peptide Aβ(pE11-18)-PEG was used because the hydrophilic PEG group imparts hydrophilic properties and so it was possible to dissolve the peptide directly in ITC buffer. Former experiments with Aβ(pE11-20) could only be performed with 1-2% DMSO, due to the strong hydrophobicity of the peptide it was necessary to dissolve it with DMSO which could have an effect on the ITC binding properties. At first the antibody was dialyzed against ITC buffer (150 mM NaCl, 25 mM Na₂HPO₄, 25 mM KH₂PO₄, 1 mM EDTA, pH=7.1) over night at 4° C. The lyophilised peptide, stored at −20° C., was dissolved in identical ITC buffer pH=7.1 which was used for antibody dialysis. Both antibody and antigen must be in identical solutions, otherwise large heats of dilution will mask the desired observation. Before the ITC experiment, the concentration of antibody was determined by UV/VIS spectroscopy (see section 1.3.1). […] Furthermore the heat of reaction was determined which was only generated by dilution of the antigen through the titration into ITC buffer (pH=7.1). […]
(§1) To characterize the binding of anti Aβ11(pE) antibody at the Aβ(pE11-18)-PEG peptide the method of Isothermal Titration calorimetry (ITC) was used (see section 1.3.4). The antibody which was eluted from protein G column with KSCN-gradient (pH 7.0) and 0.1 M glycine-HCl (pH 2.7) was analyzed.

Aβ(pE11-18)-PEG peptide [2] = biological target: T2, Aβ(pE11-18)-PEG peptide; experiment: ITC at 20 °C, peptide titrated into antibody eluted with 0.1 M glycine-HCl pH 2.7
Method: For the ITC experiment, the peptide Aβ(pE11-18)-PEG was used because the hydrophilic PEG group imparts hydrophilic properties and so it was possible to dissolve the peptide directly in ITC buffer. Former experiments with Aβ(pE11-20) could only be performed with 1-2% DMSO, due to the strong hydrophobicity of the peptide it was necessary to dissolve it with DMSO which could have an effect on the ITC binding properties. At first the antibody was dialyzed against ITC buffer (150 mM NaCl, 25 mM Na₂HPO₄, 25 mM KH₂PO₄, 1 mM EDTA, pH=7.1) over night at 4° C. The lyophilised peptide, stored at −20° C., was dissolved in identical ITC buffer pH=7.1 which was used for antibody dialysis. Both antibody and antigen must be in identical solutions, otherwise large heats of dilution will mask the desired observation. Before the ITC experiment, the concentration of antibody was determined by UV/VIS spectroscopy (see section 1.3.1). At first the antibody with e.g. 5.13 μM (see Table 4) was added into the sample cell and the reference cell was filled with distilled water. Then the antigen was injected into the sample cell with e.g. 81.78 μM (see Table 4). The antigen should be generally in twofold excess to the antibody, bearing in mind that an antibody has two binding sites the antigen was in the cell at least in fourfold excess to the antibody. The 30 injections (1×2 μl and 29×10 μl) were made with a 4-min interval between subsequent injections. The measurement of heat of reaction was performed at 20° C. Furthermore the heat of reaction was determined which was only generated by dilution of the antigen through the titration into ITC buffer (pH=7.1). Therefore the antigen was injected into the sample cell filled with ITC buffer. […]
as §1

Aβ(pE11-30) peptide = biological target: T3, Aβ(pE11-30) peptide (N-terminal pyroglutamate (Aβ position 11)); experiment: SPR (Biacore 3000), purified antibody 0.04-10 µg/ml, 30 µl/min for 300 s, CM5 chip with immobilized Aβ(pE11-30); signal taken at the end of the dissociation phase, non-coated flow cell subtracted
T3 construct: Synthesized peptide; Amine-coupled to a CM5 chip for SPR, or adsorbed to the microplate for the direct ELISA
T3 peptide: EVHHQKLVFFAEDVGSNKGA
Method: Then the coupling of peptide followed. At first 10 μg/ml peptide Aβ(pE11-30) in 10 mM potassiumdihydrogenorthophosphate pH 6 was injected with a flow rate of 10 μl/min for 5 min. Because of the low signal rise the peptide was applied again with a higher concentration diluted in a solution with pH 5. 50 μg/ml peptide Aβ(pE11-30) in 10 mM sodium acetate pH 5 was injected with a flow rate of 10 μl/min for 20 min. A mild acid pH was chosen for coupling to provide a pre-concentration of the peptide (positive net charge) at the sensor surface (carboxyl group negative net charge) by electrostatic attraction. The covalent bond of the peptide was formed by the reaction of the two amino acids lysine (at peptide position 16 and 28) with the activated carboxyl group at chip surface. Excess reactive ester groups were deactivated with 1 M ethanolamine pH 8.5 with a flow rate of 10 μl/min for 10 min. Non-immobilized peptides were removed by injection of 0.1 M HCl (3×10 μl) and subsequently the chip was rinsed over night with running buffer. At the end the signal was about 1000 Response Units (RU) whereby the chip surface was saturated with the peptide.
For the measurement of anti Aβ11(pE) antibody concentration a CM5 chip, which was coated with Aβ(pE11-30) was used. The chip surface was saturated with the peptide and the signal was about 1000 Response Units (RU) (see section 1.3.3.1). […]

B1: monoclonal mouse anti Aβ11(pE) antibody Aβ 13-11-6 (clone 13), Deposit No. DSM ACC 3100 (antibody, V domains shown)
VH: QVQLQQPGTELVKPGASVKLSCKASGFTFTSYWMHWVRQRPGQGLEWIGEINPSNGRTNYNEKFKSKATLTVDKSSSTAYMQLSSLTSEDSEVYYCARGDLAWDWSAYWGQGTLVTVSA
VL: DIVMSQSPSSLAVSAGEKVTMSCKSSQSLFYSRTRKNYLAWYQQKPGQSPKLLIYWASTRESGVPDRFTGSGSGTDFTLTISSVQAEDLAVYYCKQSYNLWSFGGGTKLEIKR
notes: The KSCN-eluted and glycine-HCl-eluted preparations are the same molecule; also called pEVHH-59025 13-11-6; mAb mouse anti Aβ11(pE)
With B1 the binding result (Aβ(pE11-20)-biotin) was “binds”, the Kd (Aβ(pE11-18)-PEG peptide [1]) was 78.7 nM and the “-TΔS” value (Aβ(pE11-18)-PEG peptide [2]) was -1.36 kcal/mol. For the same binder, the Ka (Aβ(pE11-18)-PEG peptide [2]) was 9.5e+06 M⁻¹, the “Stoichiometry (N)” value (Aβ(pE11-18)-PEG peptide [2]) was 1.01 and the “EC50 (read off the curve)” value (Aβ(pE11-30) peptide) was roughly 1 µg/mL.
